From paper PMC10359603

Experiments:
[1] = target: QseM (wild type, bacterial two-hybrid); experiment: bacterial two-hybrid
[2] = target: FseA (wild type, bacterial two-hybrid); experiment: bacterial two-hybrid
[3] = target: FseA_(1–55) (Mesorhizobium japonicum R7A); experiment: two-hybrid; Bacteriomatch II bacterial two-hybrid in E. coli; growth on selective medium with 5 mM 3-amino-1,2,4-triazole; strength as CFU/ml on selective against non-selective medium
[4] = target: 6H-MBP-FseA (Mesorhizobium japonicum R7A); experiment: SEC; HiLoad 16/600 Superdex 200; 50 mM Na2HPO4/NaH2PO4 pH 6.35, 10% glycerol, 500 mM NaCl; apparent mass from the elution volume
[5] = system: 6H-MBP-FseA (Mesorhizobium japonicum R7A (ICEMlSymR7A)?); experiment: EMSA; conditions: dimer concentration 4-130 nM; Hill slope fit, n=3; FseA EMSA: 10 mM Na phosphate pH 6.35, 220 mM NaCl, 6% glycerol, 1 mM DTT, 0.01 ug/ul poly(dI.dC), 0.1 ug/ul herring sperm DNA, 0.1-0.19 ug/ul BSA, 5 nM probe …

percent of parent (% of wild-type FseA) [1] | percent of parent (% of wild-type QseM) [2] | Substance | further results
< 10 | – | FseA (wild type, bacterial two-hybrid) R37A | –
> 90 | – | FseA (wild type, bacterial two-hybrid) G214 | –
– | < 10 | QseM (wild type, bacterial two-hybrid) L29A | –
> 90 | – | FseA (wild type, bacterial two-hybrid) W32A | –
– | < 10 | QseM (wild type, bacterial two-hybrid) R68A | –
– | > 90 | QseM (wild type, bacterial two-hybrid) R28A | –
> 90 | – | FseA (wild type, bacterial two-hybrid) R219A | –
– | > 90 | QseM (wild type, bacterial two-hybrid) R57A | –
– | – | QseM (wild type, bacterial two-hybrid) (natural protein) | interaction strength relative to wild-type FseA [3]: 40%
– | < 10 | QseM (wild type, bacterial two-hybrid) W71A | –
> 90 | – | FseA (wild type, bacterial two-hybrid) D210A | –
– | – | 6H-MBP-FseA (natural protein) | stoichiometry N [4]: 2
> 90 | – | FseA (wild type, bacterial two-hybrid) R36A | –
– | < 10 | QseM (wild type, bacterial two-hybrid) D31A | –
– | – | PrdfS FseA-box probe | Kd [5]: 30 nM
– | > 90 | QseM (wild type, bacterial two-hybrid) E56A | –
– | > 90 | QseM (wild type, bacterial two-hybrid) H22A | –
